Measured values from PMC4242493, “Sequence specificity incompletely defines the genome-wide occupancy of Myc”.

What was measured:
[1] = biological target: T1, Myc;MaxL (Homo sapiens;Homo sapiens, UniProt P01106-1;P61244 1-439;1-160, |); experiment: EMSA; stoichiometric, 125 nM, silver stain; EMSA: 25 mM HEPES pH 7.6, 100 mM KCl, 1 mM DTT, 0.1 mM EDTA, 0.01% Triton, 30 min at room temperature; 6% polyacrylamide gel in 0.5X Tris/glycine; conditions: protein: recombinant;recombinant; tags: C-terminal His-tag (pET21a);C-terminal His-tag (pET21a); copies: 1;1; label: unlabeled
T1 sequence (P01106 16-454, chain 1 of 2): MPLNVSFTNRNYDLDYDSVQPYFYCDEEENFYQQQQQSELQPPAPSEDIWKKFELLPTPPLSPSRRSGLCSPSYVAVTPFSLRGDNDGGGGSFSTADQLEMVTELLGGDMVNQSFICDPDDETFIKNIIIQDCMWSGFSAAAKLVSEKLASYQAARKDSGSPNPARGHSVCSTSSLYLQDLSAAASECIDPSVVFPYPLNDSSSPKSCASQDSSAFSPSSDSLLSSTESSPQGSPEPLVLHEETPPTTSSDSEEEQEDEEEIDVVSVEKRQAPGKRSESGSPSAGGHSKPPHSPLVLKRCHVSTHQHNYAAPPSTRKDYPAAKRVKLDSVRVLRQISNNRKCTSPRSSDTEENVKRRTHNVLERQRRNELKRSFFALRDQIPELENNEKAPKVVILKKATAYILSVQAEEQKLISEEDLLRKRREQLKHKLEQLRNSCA
T1 sequence (P61244 whole entry, chain 2 of 2): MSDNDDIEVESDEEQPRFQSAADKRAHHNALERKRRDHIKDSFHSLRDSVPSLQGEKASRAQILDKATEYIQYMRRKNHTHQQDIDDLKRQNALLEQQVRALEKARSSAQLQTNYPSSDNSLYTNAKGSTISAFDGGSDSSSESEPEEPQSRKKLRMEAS

[2] = biological target: Myc;MaxS (human? (HeLa cDNA);human? (HeLa cDNA), UniProt P01106-1;P61244-2 1-439;1-151, |); experiment: as above; conditions: protein: recombinant;recombinant; tags: C-terminal His-tag (pET21a);C-terminal His-tag (pET21a); copies: 1;1; label: unlabeled
Myc;MaxS, sequence (P01106 16-454, chain 1 of 2): as the sequence (P01106 16-454, chain 1 of 2) above
Myc;MaxS, sequence (P61244 other isoform, or with tags, fused parts or gaps |, chain 2 of 2): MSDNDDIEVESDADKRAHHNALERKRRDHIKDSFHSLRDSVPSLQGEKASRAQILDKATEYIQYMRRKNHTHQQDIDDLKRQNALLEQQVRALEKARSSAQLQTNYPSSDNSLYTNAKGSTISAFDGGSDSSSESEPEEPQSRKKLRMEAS

[3] = biological target: MaxL (human? (HeLa cDNA), UniProt P61244 1-160); experiment: EMSA; 0.01 nM probe; MaxL homodimer; EMSA: 25 mM HEPES pH 7.6, 100 mM KCl, 1 mM DTT, 0.1 mM EDTA, 0.01% Triton, 30 min at room temperature; 6% polyacrylamide gel in 0.5X Tris/glycine; conditions: protein: recombinant; tags: C-terminal His-tag (pET21a); chain copies: 2; unlabeled in silver-stained EMSA
MaxL, sequence (P61244 whole entry): as the sequence (P61244 whole entry, chain 2 of 2) above

[4] = biological target: T1, Myc;MaxL; experiment: EMSA; 0.01 nM probe; EMSA: 25 mM HEPES pH 7.6, 100 mM KCl, 1 mM DTT, 0.1 mM EDTA, 0.01% Triton, 30 min at room temperature; 6% polyacrylamide gel in 0.5X Tris/glycine; conditions: protein: recombinant;recombinant, tags: C-terminal His-tag (pET21a);C-terminal His-tag (pET21a), copies: 1;1

B1: GTGGTG probe (26 bp) (dsDNA)
DNA 1: GAGGGATCGGGTGGTGGGATCGGAGG
DNA 2: CCTCCGATCCCACCACCCGATCCCTC
binding result [1]: binds
binding result [2]: binds

B2: CACGTG probe (26 bp) (dsDNA)
DNA 1: GAGGGATCGGCACGTGGGATCGGAGG
DNA 2: CCTCCGATCCCACGTGCCGATCCCTC
Kd [3]: 400 pM
Kd ([4]; unlabeled in silver-stained EMSA): 100 pM

B3: ATCTAG probe (26 bp) (dsDNA)
DNA 1: GAGGGATCGGATCTAGGGATCGGAGG
DNA 2: CCTCCGATCCCTAGATCCGATCCCTC
Kd ([4]; label: 32P 5' end-labeled on both strands (Kd)): 20000 pM
